Experimental data as given in patent US20020086396A1 (Human Genome Sciences, published 2002).

Biological target: T1, GST-αβ fusion protein (human, UniProt P52655 1-376)
T1 construct: Bacterially expressed and fixed to glutathione sepharose beads; not shown: glutathione-S-transferase (GST), fusion partner
T1 sequence (looked up): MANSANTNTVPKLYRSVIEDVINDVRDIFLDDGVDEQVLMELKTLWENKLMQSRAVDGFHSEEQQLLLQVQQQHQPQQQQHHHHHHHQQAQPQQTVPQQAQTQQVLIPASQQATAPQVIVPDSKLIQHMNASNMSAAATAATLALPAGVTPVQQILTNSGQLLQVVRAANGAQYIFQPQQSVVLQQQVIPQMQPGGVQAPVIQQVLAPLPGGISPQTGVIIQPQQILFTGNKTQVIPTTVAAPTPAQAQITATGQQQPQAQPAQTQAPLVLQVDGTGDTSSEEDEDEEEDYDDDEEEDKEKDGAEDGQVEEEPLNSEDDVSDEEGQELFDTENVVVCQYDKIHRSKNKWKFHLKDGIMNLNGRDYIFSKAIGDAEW
Assay: GST pull-down, 35S-labelled protein on glutathione sepharose beads, autoradiography
Protocol: Bacterial extracts of GST or GST fusion proteins were incubated with glutathione sepharose-4B beads (6-9 μg of GST-fusion protein/20 μl of beads) with shaking at […]. After 2 hours the beads were washed with 50 column volumes of cold buffer A (20 mM NaH₂PO₄ (pH 7.0) 150 mM NaCl, 1 mM DTT, 1 mM PMSF). Washed beads (20 μl) were then incubated with reticulocyte lysates containing 2×10⁴ cpm of ³⁵S labelled protein in 300 μl of protein binding buffer (PBB) for 1 hour at room temperature. PBB contained 20 mM Hepes (pH 7.9), 20% glycerol, 0.5 mM EDTA, 60 mM KCl, 5 mM MgCl2, 0.1% NP40, and 5 mM β-mercaptoethanol. The beads were subsequently washed 4 times in PBB and labeled proteins were eluted with 1M KCl. Samples were analyzed on 15% SDS polyacrylamide gels, enhanced with NaSalycilate, and visualized by autoradiography.

binding result: no binding
B1: 35S-labelled TFIIA αβ (large subunit of human TFIIA) (other, UniProt P52655 1-376, looked up)
chain: T1 sequence (looked up)
modifications: 35S label
notes: Made in reticulocyte lysate as 35S-labelled protein; also called αβ subunit; radiolabelled αβ
